# Experimental data published in patent publication US20190218261A1, “TARGETED ENHANCED DNA DEMETHYLATION” (The Jackson Laboratory, priority 2016, published 2019).
# B1: NEIL2: NEIL2 glycosylase enhancer, tested fused to PUFa-TET1(CD) (either PUFa terminus) or to PUFc (protein)
# chain: MLPEGPLVRKFHHLVSPFVGQQVVKTGGSSKKLQPASLQSLWLQDTQVHGKKLFLRFDLDEEMGPPGSSPTPEPPQKEVQKEGAADPKQVGEPSGQKTLDGSSRSAELVPQGEDDSEYLERDAPAGDAGRWLRVSFGLFGSVWVNDFSRAKKANKRGDWRDPSPRLVLHFGGGGFLAFYNCQLSWSSSPVVTPTCDILSEKFHRGQALEALGQAQPVCYTLLDQRYFSGLGNIIKNEALYRAGIHPLSLGSVLSASRREVLVDHVVEFSTAWLQGKFQGRPQHTQVYQKEQCPAGHQVMKEAFGPEDGLQRLTWWCPQCQPQLSEEPEQCQFS
# B2: TET1(CD)(H1671Y D1673A)-PUFa: catalytically dead TET1(CD) PUFa fusion; SEQ ID NO:110 (protein)
# chain: MIDGGGGSDPKKKRKVDPKKKRKVDPKKKRKVGSTGSRNDGGGGSGGGGSGGGGSGRAGILPPKKKRKVSRGRSRLLEDFRNNRYPNLQLREIAGHIMEFSQDQHGSRFIQLKLERATPAERQLVFNEILQAAYQLMVDVFGNYVIQKFFEFGSLEQKLALAERIRGHVLSLALQMYGSRVIEKALEFIPSDQQNEMVRELDGHVLKCVKDQNGNHVVQKCIECVQPQSLQFIIDAFKGQVFALSTHPYGCRVIQRILEHCLPDQTLPILEELHQHTEQLVQDQYGNYVIQHVLEHGRPEDKSKIVAEIRGNVLVLSQHKFASNVVEKCVTHASRTERAVLIDEVCTMNDGPHSALYTMMKDQYANYVVQKMIDVAEPGQRKIVMHKIRPHIATLRKYTYGKHILAKLEKYYMKNGVDLGDPKKKRKVDPKKKRKVGGRGGGGSGGGGSGGGGSGPAELPTCSCLDRVIQKDKGPYYTHLGAGPSVAAVREIMENRYGQKGNAIRIEIVVYTGKEGKSSHGCPIAKWVLRRSSDEEKVLCLVRQRTGHHCPTAVMVVLIMVWDGIPLPMADRLYTELTENLKSYNGHPTDRRCTLNENRTCTCQGIDPETCGASFSFGCSWSMYFNGCKFGRSPSPRRFRIDPSSPLHEKNLEDNLQSLATRLAPIYKQYAPVAYQNQVEYENVARECRLGSKEGRPFSGVTACLDFCAHPYRAIHNMNNGSTVVCTLTREDNRSLGVIPQDEQLHVLPLYKLSDTDEFGSKEGMEAKIKSGAIEVLAPRRKKRTCFTQPVPRSGKKRAAMMTEVLAHKIRAVEKKPIPRIKRKNNSTTTNNSKPSSLPTLGSNTETVQPEVKSETEPHFILKSSDNTKTYSLMPSAPHPVKEASPGFSWSPKTASATPAPLKNDATASCGFSERSSTPHCTMPSGRLSGANAAAADGPGISQLGEVAPLPTLSAPVMEPLINSEPSTGVTEPLTPHQPNHQPSFLTSPQDLASSPMEEDEQHSEADEPPSDEPLSDDPLSPAEEKLPHIDEYWSDSEHIFLDANIGGVAIAPAHGSVLIECARRELHATTPVEHPNRNHPTRLSLVFYQHKNLNKPQHGFELNKIKFEAKEAKNKKMKASEQKDQAANEGPEQSSEVNELNQIPSHKALTLTHDNVVTVSPYALTHVAGPYNHWVID
# B3: PUFc-NEIL2: SEQ ID NO:127 (protein)
# chain: MIDGGGGSDPKKKRKVDPKKKRKVDPKKKRKVGSTGSRNDGGGGSGGGGSGGGGSGRAGILPPKKKRKVSRGRSRLLEDFRNNRYPNLQLREIAGHIMEFSQDQHGSRFIQLKLERATPAERQLVFNEILQAAYQLMVDVFGNYVIQKFFEFGSLEQKLALAERIRGHVLSLALQMYGSRVIEKALEFIPSDQQNEMVRELDGHVLKCVKDQNGNHVVQKCIECVQPQSLQFIIDAFKGQVFALSTHPYGCRVIQRILEHCLPDQTLPILEELHQHTEQLVQDQYGSYVIEHVLEHGRPEDKSKIVAEIRGNVLVLSQHKFANNVVQKCVTHASRTERAVLIDEVCTMNDGPHSALYTMMKDQYANYVVQKMIDVAEPGQRKIVMHKIRPHIATLRKYTYGKHILAKLEKYYMKNGVDLGDPKKKRKVDPKKKRKVGGRGGGGSGGGGSGGGGSGPALPEGPLVRKFHHLVSPFVGQQVVKTGGSSKKLQPASLQSLWLQDTQVHGKKLFLRFDLDEEMGPPGSSPTPEPPQKEVQKEGAADPKQVGEPSGQKTLDGSSRSAELVPQGEDDSEYLERDAPAGDAGRWLRVSFGLFGSVWVNDFSRAKKANKRGDWRDPSPRLVLHFGGGGFLAFYNCQLSWSSSPVVTPTCDILSEKFHRGQALEALGQAQPVCYTLLDQRYFSGLGNIIKNEALYRAGIHPLSLGSVLSASRREVLVDHVVEFSTAWLQGKFQGRPQHTQVYQKEQCPAGHQVMKEAFGPEDGLQRLTWWCPQCQPQLSEEPEQCQFS
# Test system: hMLH1 expression (methylation-silenced hMLH1 promoter) in HEK293T cells
# Experiment: hMLH1 mRNA levels by TaqMan qRT-PCR in transfected HEK293T cells
# Format: cell-based, human
# Procedure: To test the system, HEK293T cells were transfected with Casilio-ME components including Ct or Nt-fusion TET1-effector and a combination of 3 or 2 sgRNAs. Relative levels of hMLH1 mRNA were determined in TaqMan assays by using RNA extracted from cells 60 hours post-transfection and GAPDH as endogenous control for normalization of qRT-PCR measurements.
# Cell culture and transfection. HEK293T cells were cultivated in Dulbecco's modified Eagle's medium (DMEM)(Sigma) with 10% fetal bovine serum (FBS)(Lonza), 4% Glutamax (Gibco), 1% Sodium Pyruvate (Gibco) and penicillin-streptomycin (Gibco) in an incubator set to 37° C. and 5% CO2. When indicated cells were treated with 2.5 μM or 5 μM 5-Azacytidine (sigma) as indicated with a daily change of medium containing freshly diluted drug. Cells were seeded into 12-well plates at 150,000 cells per well the day before being transfected with 100 ng of dCas9 construct, 100 ng of modified sgRNA construct and 200 ng of PUF-fusion with Attractene transfection reagent according to manufacturer's instructions (Qiagen). In dCas9-direct fusion experiments, cells were transfected with 200 ng dCas9-fusion constructs and 200 ng of modified sgRNA constructs. Transfected cells were harvested 60 hours after transfection, or otherwise indicated, and cell pellets were used for extractions of RNA, genomic DNA and protein.
# Quantitative RT-PCR analysis. Cells were harvested, washed with Dulbecco's phosphate-buffered saline (dPBS), centrifuged at 125×g for 5 min and then the flash-frozen pellets were stored at −80° C. RNA was extracted using RNeasy Plus Mini Kit according to the manufacturer's instructions (Qiagen). cDNA libraries were made using Applied Biosystems High Capacity RNA-to-cDNA kit with 200 ng to 1 μg of RNA. TaqMan gene expression assays (Applied Biosystems) were designed using GAPDH (Hs03929097, VIC) as endogenous control and hMLH1 (Hs00179866, FAM) as target. TaqMan Universal Master Mix II, with UNG (Applied Biosystems) was used for Quantitative PCR (qPCR), with 2 μl of diluted cDNA used for each reaction. Activation was analyzed with the Applied Biosystems ViiA7 instrument. Gene expression levels were calculated by “delta delta Ct” algorithm and normalized to control samples.
# HEK293T cells were cultivated in Dulbecco's modified Eagle's medium (DMEM) (Sigma) with 10% fetal bovine serum (FBS) (Lonza), 4% Glutamax (Gibco), 1% Sodium Pyruvate (Gibco) and penicillin-streptomycin (Gibco) in an incubator set to 37° C. and 5% CO2. Cells were seeded into 12-well plates at 150,000 cells per well the day before being transfected with 100 ng of dCas9 construct, 100 ng of modified sgRNA construct and 200 ng of PUF-fusion with Attractene transfection reagent according to manufacturer's instructions (Qiagen). Transfected cells were harvested 3 days after transfection, or otherwise indicated, and cell pellets were used for RNA extractions.
# Cells were harvested, washed with Dulbecco's phosphate-buffered saline (dPBS), centrifuged at 125×g for 5 min and then the flash-frozen pellets were stored at −80° C. RNA was extracted using RNeasy Plus Mini Kit according to the manufacturer's instructions (Qiagen). cDNA libraries were made using Applied Biosystems High Capacity RNA-to-cDNA kit with 200 ng to 2 μg of RNA. TaqMan gene expression assays (Applied Biosystems) were designed using GAPDH (Hs03929097, VIC) as endogenous control and hMLH1 (Hs00179866, FAM) as target. TaqMan Universal Master Mix II, with UNG (Applied Biosystems) was used for Quantitative PCR (qPCR), with 2 μl of diluted cDNA used for each reaction. Activation was analyzed with the Applied Biosystems ViiA7 instrument. Gene expression levels were calculated by “delta delta Ct” algorithm and normalized to control samples.
molecule,measurement,setting,value
B1,increase in gene activation with NEIL2 in the PUFa-TET1CD fusion (repeat experiment),"MLH1 gRNAs, NEIL2 at either PUFa terminus",four-fold increase in gene activation
same,increase in hMLH1 expression with NEIL2 fused to PUFc,"co-expressed with PUFa-TET1(CD), gRNAs with PBSa/c, RT-quantitative PCR",7 fold
same,hMLH1 activation by DNA glycosylase two-in-one effector fusions (in words),"fusions to PUFa-TET1(CD), gRNA 5xPBSa, HEK293T, 3 days",enhanced activation of hMLH1
same,effect on TET1-mediated gene activation when gRNA lacked PBSc,gRNA scaffold with PBSa only,no effect on TET1-mediated gene activation
same,hMLH1 activation relative to TET1 effector alone,two-in-one fusion to PUFa-TET1(CD),3 fold
B2,hMLH1 expression without TET1 catalytic activity,GADD45A expressed with catalytically dead TET1(CD) fusion or without TET1(CD) fusion,no hMLH1 expression was detected
B3,stimulation of TET1(CD) mediated hMLH1 activation by independent NEIL2 module,"dual expression with PUFa-TET1(CD), gRNAs with both PBSa/c",significant stimulation of the TET1(CD) mediated hMLH1 activation
